The target in the assay is T1, nSR100 (Mus musculus, UniProt Q8BKA3).
T1 construct: host or cells: mouse N2A cells
T1 sequence (Q8BKA3 1-608): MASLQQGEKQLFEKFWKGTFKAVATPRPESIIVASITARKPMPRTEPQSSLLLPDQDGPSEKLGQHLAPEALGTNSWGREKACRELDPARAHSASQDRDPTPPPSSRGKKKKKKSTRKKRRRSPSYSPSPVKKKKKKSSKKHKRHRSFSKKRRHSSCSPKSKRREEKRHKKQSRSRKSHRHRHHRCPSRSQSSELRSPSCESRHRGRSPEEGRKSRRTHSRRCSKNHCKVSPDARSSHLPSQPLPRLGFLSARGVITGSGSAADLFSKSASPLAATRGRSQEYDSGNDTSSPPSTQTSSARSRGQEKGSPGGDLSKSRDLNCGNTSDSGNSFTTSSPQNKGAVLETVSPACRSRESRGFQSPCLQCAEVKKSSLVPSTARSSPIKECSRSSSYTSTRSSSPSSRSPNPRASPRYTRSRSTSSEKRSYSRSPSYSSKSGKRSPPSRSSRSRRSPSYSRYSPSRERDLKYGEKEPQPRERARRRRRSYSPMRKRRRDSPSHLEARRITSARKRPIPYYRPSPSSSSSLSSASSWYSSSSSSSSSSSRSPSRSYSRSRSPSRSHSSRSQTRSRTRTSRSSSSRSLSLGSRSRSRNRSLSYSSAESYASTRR
The assay is described as follows: AP-MS nSR100 interaction partners from mouse N2A cells (Table 5). It is filed as binding. To be noted: for AvgP (average of the SAINT scores) / MaxP (maximal SAINT score): bait Srrm4; for FoldChange between the prey Avg spectra of the bait and control purifications: bait Srrm4, 0.1 added to prevent division by 0; for AvgSpec (average number of spectra per replicate): bait Srrm4, 2 replicates; for Spectra (number of spectra for the prey in the purification of the bait): AP-MS; for SpecSum: bait Srrm4, sum of spectra over 2 replicates.

[1] abbreviates: bait Srrm4, biological replicate 1 (first number of the cell).
The mark [2] stands for this setting: bait Srrm4, biological replicate 2 (second number of the cell).

Text: By applying affinity purification coupled to mass-spectrometry (AP-MS), several interaction nSR100 partner proteins were detected that provide insight into mechanisms of post-translational regulation of nSR100 levels.

Regarding Bub3, the “AvgP (average of the SAINT scores)” value is given as 1; the “MaxP (maximal SAINT score)” value is on record as 1; the “FoldChange between the prey Avg spectra of the bait and control purifications” value (“FoldChange between the prey Avg spectra” below) is on record as 9.5; the “AvgSpec (average number of spectra per replicate)” value is given as 19. The same substance had a SpecSum of 38. Also, the “Spectra (number of spectra for the prey in the purification of the bait)” value under setting [1] is 17. Also, the “Spectra (number of spectra for the prey in the purification of the bait)” value under setting [2] was determined as 21.
As for Csnk2b, the “AvgP (average of the SAINT scores)” value stood at 0.99; the “MaxP (maximal SAINT score)” value worked out at 1; the “FoldChange between the prey Avg spectra” value worked out at 8.5; the “AvgSpec (average number of spectra per replicate)” value is 8.5. The same substance came in with a SpecSum of 17. The “Spectra (number of spectra for the prey in the purification of the bait)” value under setting [1] stood at 10. Moreover, the “Spectra (number of spectra for the prey in the purification of the bait)” value under setting [2] is listed as 7.
With Cdc42bpb, the “AvgP (average of the SAINT scores)” value amounted to 1; the “MaxP (maximal SAINT score)” value was found to be 1; the “FoldChange between the prey Avg spectra” value stood at 90; the “AvgSpec (average number of spectra per replicate)” value is listed as 9. In addition, the SpecSum worked out at 18. Also, the “Spectra (number of spectra for the prey in the purification of the bait)” value under setting [1] is 6. For the same substance, the “Spectra (number of spectra for the prey in the purification of the bait)” value under setting [2] is on record as 12.
Turning to Hspa2, the “AvgP (average of the SAINT scores)” value was 1; the “MaxP (maximal SAINT score)” value worked out at 1; the “FoldChange between the prey Avg spectra” value is 390; the “AvgSpec (average number of spectra per replicate)” value amounted to 39. Also, the SpecSum stood at 78. Besides, the “Spectra (number of spectra for the prey in the purification of the bait)” value under setting [1] came out at 41. Also, under setting [2], the “Spectra (number of spectra for the prey in the purification of the bait)” value is on record as 37.
Take Son: the “AvgP (average of the SAINT scores)” value was 0.98; the “MaxP (maximal SAINT score)” value was determined as 1; the “FoldChange between the prey Avg spectra” value is recorded as 45; the “AvgSpec (average number of spectra per replicate)” value turned out to be 4.5. For the same substance, the SpecSum was found to be 9. For the same substance, the “Spectra (number of spectra for the prey in the purification of the bait)” value under setting [1] was 2. Moreover, the “Spectra (number of spectra for the prey in the purification of the bait)” value under setting [2] is 7.
Consider Srrm2, for which the “AvgP (average of the SAINT scores)” value is 1; the “MaxP (maximal SAINT score)” value is recorded as 1; the “FoldChange between the prey Avg spectra” value was found to be 5.37; the “AvgSpec (average number of spectra per replicate)” value was 51. The substance further returned a SpecSum of 102. Besides, the “Spectra (number of spectra for the prey in the purification of the bait)” value under setting [1] came out at 47. Further, the “Spectra (number of spectra for the prey in the purification of the bait)” value under setting [2] stood at 55.
In the case of Rfc2, the “AvgP (average of the SAINT scores)” value was 0.95; the “MaxP (maximal SAINT score)” value worked out at 0.95; the “FoldChange between the prey Avg spectra” value is recorded as 20; the “AvgSpec (average number of spectra per replicate)” value was 2. The same substance gave a SpecSum of 4. Also, the “Spectra (number of spectra for the prey in the purification of the bait)” value under setting [1] was 2|2. Moreover, the “Spectra (number of spectra for the prey in the purification of the bait)” value under setting [2] is on record as 2|2.
As to Cdk1, the “AvgP (average of the SAINT scores)” value is listed as 1; the “MaxP (maximal SAINT score)” value came to 1; the “FoldChange between the prey Avg spectra” value came out at 14.25; the “AvgSpec (average number of spectra per replicate)” value is listed as 57. For the same substance, the SpecSum is 114. Moreover, the “Spectra (number of spectra for the prey in the purification of the bait)” value under setting [1] was determined as 47. Moreover, the “Spectra (number of spectra for the prey in the purification of the bait)” value under setting [2] is on record as 67.
Consider Ap2a2, for which the “AvgP (average of the SAINT scores)” value turned out to be 1; the “MaxP (maximal SAINT score)” value was 1; the “FoldChange between the prey Avg spectra” value is recorded as 6.16; the “AvgSpec (average number of spectra per replicate)” value was 117. The substance further displayed a SpecSum of 234. The “Spectra (number of spectra for the prey in the purification of the bait)” value under setting [1] was 97. Moreover, under setting [2], the “Spectra (number of spectra for the prey in the purification of the bait)” value was found to be 137.
